Laboratory results reported in US20230220589A1.

What was measured:
[1] = molecular target: M44-modified Q NTAA target peptides; assay: encoding assay; P2 G
[2] = molecular target: M44-modified E NTAA target peptides; assay: encoding assay; P2 G;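 further: fraction of recording tags encoded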
[3] = molecular target: M44-modified V NTAA target peptides; assay: encoding assay; P2 G;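 further: fraction of recording tags encoded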
[4] = molecular target: M44-modified L NTAA target peptides (M44-L-P2-peptide); assay: encoding assay; P2 G;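 further: fraction of recording tags encoded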
[5] = molecular target: M44-modified I NTAA target peptides (M44-I-P2-peptide); assay: encoding assay; P2 G
[6] = molecular target: M44-modified W NTAA target peptides; assay: encoding assay; P2 G;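 further: fraction of recording tags encoded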
[7] = molecular target: M44-modified Y NTAA target peptides (M44-Y-P2-peptide); assay: encoding assay; P2 G;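 further: fraction of recording tags encoded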
[8] = molecular target: M44-modified F NTAA target peptides (M44-F-P2-peptide); assay: encoding assay; P2 G;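 further: fraction of recording tags encoded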
[9] = molecular target: M44-modified T NTAA target peptides; assay: encoding assay; P2 G
[10] = molecular target: M44-modified M NTAA target peptides; assay: encoding assay; P2 G
[11] = molecular target: M44-modified Q NTAA target peptides; assay: encoding assay; P2 W
[12] = molecular target: M44-modified V NTAA target peptides; assay: encoding assay; P2 W;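 further: fraction of recording tags encoded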
[13] = molecular target: M44-modified L NTAA target peptides (M44-L-P2-peptide); assay: encoding assay; P2 W;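 further: fraction of recording tags encoded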
[14] = molecular target: M44-modified G NTAA target peptides (M44-G-P2-peptide); assay: encoding assay; P2 W;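 further: fraction of recording tags encoded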
[15] = molecular target: M44-modified I NTAA target peptides (M44-I-P2-peptide); assay: encoding assay; P2 W
[16] = molecular target: M44-modified W NTAA target peptides; assay: encoding assay; P2 W;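 further: fraction of recording tags encoded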
[17] = molecular target: M44-modified H NTAA target peptides; assay: encoding assay; P2 W
[18] = molecular target: M44-modified Y NTAA target peptides (M44-Y-P2-peptide); assay: encoding assay; P2 W;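 further: fraction of recording tags encoded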
[19] = molecular target: M44-modified N NTAA target peptides; assay: encoding assay; P2 W
[20] = molecular target: M44-modified A NTAA target peptides (M44-A-P2-peptide); assay: encoding assay; P2 W
[21] = molecular target: M44-modified P NTAA target peptides; assay: encoding assay; P2 W;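 further: fraction of recording tags encoded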
[22] = molecular target: M44-modified S NTAA target peptides; assay: encoding assay; P2 W
[23] = molecular target: M44-modified T NTAA target peptides; assay: encoding assay; P2 W
[24] = molecular target: M44-modified M NTAA target peptides; assay: encoding assay; P2 W
[25] = molecular target: M44-modified E NTAA target peptides; assay: encoding assay; P2 Y;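 further: fraction of recording tags encoded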
[26] = molecular target: M44-modified L NTAA target peptides (M44-L-P2-peptide); assay: encoding assay; P2 Y;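 further: fraction of recording tags encoded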
[27] = molecular target: M44-modified G NTAA target peptides (M44-G-P2-peptide); assay: encoding assay; P2 Y;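 further: fraction of recording tags encoded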
[28] = molecular target: M44-modified I NTAA target peptides (M44-I-P2-peptide); assay: encoding assay; P2 Y
[29] = molecular target: M44-modified W NTAA target peptides; assay: encoding assay; P2 Y;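 further: fraction of recording tags encoded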
[30] = molecular target: M44-modified H NTAA target peptides; assay: encoding assay; P2 Y
[31] = molecular target: M44-modified Y NTAA target peptides (M44-Y-P2-peptide); assay: encoding assay; P2 Y;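 further: fraction of recording tags encoded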
[32] = molecular target: M44-modified N NTAA target peptides; assay: encoding assay; P2 Y
[33] = molecular target: M44-modified F NTAA target peptides (M44-F-P2-peptide); assay: encoding assay; P2 Y;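 further: fraction of recording tags encoded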
[34] = molecular target: M44-modified A NTAA target peptides (M44-A-P2-peptide); assay: encoding assay; P2 Y
[35] = molecular target: M44-modified P NTAA target peptides; assay: encoding assay; P2 Y;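 further: fraction of recording tags encoded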
[36] = molecular target: M44-modified D NTAA target peptides; assay: encoding assay; P2 Y;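 further: fraction of recording tags encoded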
[37] = molecular target: M44-modified T NTAA target peptides; assay: encoding assay; P2 Y
[38] = molecular target: M44-modified M NTAA target peptides; assay: encoding assay; P2 Y
[39] = molecular target: M44-modified Q NTAA target peptides; assay: encoding assay; P2 V
[40] = molecular target: M44-modified L NTAA target peptides (M44-L-P2-peptide); assay: encoding assay; P2 V;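 further: fraction of recording tags encoded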
[41] = molecular target: M44-modified I NTAA target peptides (M44-I-P2-peptide); assay: encoding assay; P2 V
[42] = molecular target: M44-modified W NTAA target peptides; assay: encoding assay; P2 V;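 further: fraction of recording tags encoded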
[43] = molecular target: M44-modified Y NTAA target peptides (M44-Y-P2-peptide); assay: encoding assay; P2 V;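 further: fraction of recording tags encoded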
[44] = molecular target: M44-modified N NTAA target peptides; assay: encoding assay; P2 V
[45] = molecular target: M44-modified F NTAA target peptides (M44-F-P2-peptide); assay: encoding assay; P2 V;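 further: fraction of recording tags encoded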
[46] = molecular target: M44-modified A NTAA target peptides (M44-A-P2-peptide); assay: encoding assay; P2 V
[47] = molecular target: M44-modified P NTAA target peptides; assay: encoding assay; P2 V;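 further: fraction of recording tags encoded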
[48] = molecular target: M44-modified D NTAA target peptides; assay: encoding assay; P2 V;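 further: fraction of recording tags encoded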
[49] = molecular target: M44-modified S NTAA target peptides; assay: encoding assay; P2 V
[50] = molecular target: M44-modified T NTAA target peptides; assay: encoding assay; P2 V
[51] = molecular target: M44-modified M NTAA target peptides; assay: encoding assay; P2 V

Measured: encoding yield

B1: engineered M44-L binder (SEQ ID NO: 31) (designed binder, not shown: small tags and cut ends; large carriers)
chain: QDSTQNLIPAPPLISVPLQPGFWTERFQGRWFLVGFAGNAVQKERQSRLTMQSLILELQEDNSYNITAINVRGQGCRYIISTLVPSSRPGQFTLGNIHSYPQIQSLDVQVADTDYDQFAMVFLQGTSENKQYFEVALAGRTKGLSDELKERFVSFAKSLGLKDNNIVFSVPTDQCIDN
0.19: [45]
0.1: [42]
0.08: [12]
0.11: [18]
0.16: [28]
0.07: [22] | [43]
0.17: [13] | [16]
0.06: [31]
0.01: [1] | [14]
0.42: [26]
0.05: [20] | [24] | [34] | [36] | [37] | [44] | [51]
0.04: [6] | [9] | [17] | [19] | [27] | [46] | [49]
0.14: [38]
0.13: [33]
0.03: [7] | [11] | [23] | [25] | [35] | [48] | [50]
0.18: [40]
0.09: [4] | [5] | [8] | [30] | [41]
0.15: [29]
0.25: [15]
0.02: all other assays above

B2: engineered M44-L binder (SEQ ID NO: 21) (designed binder, not shown: small tags and cut ends; large carriers)
chain: QVSVQPNFQQDKFLGRWFYAGHASNSSWYREKVAALSMAKLVVAPATDGGLNATETFLRKNQCETITSLLQPAGSLGSYSSRSPHGGSTWSTSVVETDYDQYALLYLQGSKGPGEDFRGAILASRTQTPRAELKEKFTAFSKAQGFTEDTIVFLPQTDKCMTEQ
0.03: [8] | [12] | [13] | [16] | [30]
0.04: [38] | [45]
0.09: [40] | [41]
0.08: [26] | [51]
0.14: [15]
0.07: [4] | [28]
0.02: [3] | [9] | [18] | [22] | [31] | [33] | [35] | [42] | [43]
0.17: [5]
0.01: all other assays above
